Source: publication PMC8622905, “Structural Effects of Disease-Related Mutations in Actin-Binding Period 3 of Tropomyosin” (Molecules, 2021)

Key:
[1] = molecular target: the molecule itself; assay: cross-linking; disulfide cross-link through the N-terminal Cys, seen on SDS-polyacrylamide gel; Laemmli solution without β-mercaptoethanol, with or without 3 min at 100 °C
[2] = molecular target: the molecule itself; assay: mass spectrometry; molecular weights of the purified peptides compared with theoretical MWs calculated in Expasy; Liquid Chromatography and Mass Spectrometry Laboratory

B1: Tpm1.1_(64–154) (domain or fragment)
chain: not shown
modifications: disulfide bond between the Cys residues of the N-terminal fusion sequences of the two chains (non-reducing conditions)
notes: tropomyosin Tpm1.1 (human skeletal isoform, TPM1), residues Leu64 to Ile154; Cloned in pET15b between NdeI and BamHI; also called Tpm1.1 peptide; wild-type Tpm1.1_(64–154); source: His-tag removed with thrombin; not shown: His-tag, N-terminal, cleaved
stoichiometry N [1]: 2

B2: Tpm1.1_(64–154)I92T (domain or fragment)
chain: not shown
modifications: oxidized Cys residues (disulfide between the N-terminal Cys of the two chains)
notes: tropomyosin Tpm1.1 (human, TPM1), residues 64-154 with the cardiomyopathy mutation I92T; source: His-tag removed with thrombin; not shown: His-tag, N-terminal, cleaved
stoichiometry N [2]: 2

B3: Tpm3.12_(65–155)R91P (domain or fragment)
chain: not shown
modifications: oxidized Cys residues (disulfide between the N-terminal Cys of the two chains)
notes: tropomyosin Tpm3.12 (human, TPM3), residues 65-155 with the congenital myopathy mutation R91P; source: His-tag removed with thrombin; not shown: His-tag, N-terminal, cleaved
stoichiometry N [2]: 2

B4: Tpm3.12_(65–155) (domain or fragment)
chain: not shown
modifications: disulfide bond between the Cys residues of the N-terminal fusion sequences of the two chains (non-reducing conditions)
notes: tropomyosin Tpm3.12 (human skeletal isoform, TPM3), residues 65-155, numbered as in full-length Tpm3.12; Cloned in pET15b between NdeI and BamHI; One sentence of the methods prints 65–165; also called Tpm3.12 peptide; wild-type Tpm3.12_(65–155); source: His-tag removed with thrombin; not shown: His-tag, N-terminal, cleaved
stoichiometry N [1]: 2

B5: Tpm1.1_(64–154)V95A (domain or fragment)
chain: not shown
modifications: oxidized Cys residues (disulfide between the N-terminal Cys of the two chains)
notes: tropomyosin Tpm1.1 (human, TPM1), residues 64-154 with the cardiomyopathy mutation V95A; source: His-tag removed with thrombin; not shown: His-tag, N-terminal, cleaved
stoichiometry N [2]: 2

B6: Tpm3.12_(65–155)R91C (domain or fragment)
chain: not shown
modifications: oxidized Cys residues (disulfide between the N-terminal Cys of the two chains)
notes: tropomyosin Tpm3.12 (human, TPM3), residues 65-155 with the congenital myopathy mutation R91C; source: His-tag removed with thrombin; not shown: His-tag, N-terminal, cleaved
stoichiometry N [2]: 2
